Assay results taken from the DeepSol protein solubility set.

Assay: soluble on expression in E. coli; label from the status in PepcDB or PDB records

| Sequence | soluble on expression in E. coli |
| --- | --- |
| MQELYLLGVVPSRRFEAVVNSLSKTLDGPKTILEFWVVYRPKDVPPNLPRQPDSWLRLCSNIESHDETDTEWSKNTQWSMYLEGNSEPKREDKCGIRPVNRAKLTNGSVTEFVEKMGYEFSHEYIIQGLEYFFFDTTVRIYQTLIPSQQRSIKPPFHPMNEEQPWILHVYTHVADASNQVAMAKAEANLTKVKTLLSAFCDLKNVRL | soluble |
| MQFGIFTIGDVTVDPTTGKAPTEGERIHAMTQIALKAEEVGLDVFATGEHHNPPFVPSSPTTHLAYIAAKTEKLLLSTSTTLITTNDPVKIAEDYTFLQHLSGGRVDLMMGRGNTGPVYPWFGKDIHQGIPLAIENYHLLRRLWREDVVNWQGKFRTPLQGYTSTPAPLDGVAPFVWHGSIRSTEIAEQAAFYGDGFFHNNIFWNKEHTAQMVNLYRQRFEHYGHGQADQAIVGLGGQVFIGDSEEEAKKTFRPYFDNAPVYGHGPSLEDFSRLTPLTVGTAEQVIERTMEFADWVGDYQRQLFLIDHAGLPLEMVLDQIERLGHDVVPEVRRRMEERRPDHVPSNPPTHQSLKANRNSPHFQINPGQPTE | not soluble |
| MQFPSSYWIESTQLPTFPPLSENIKTKVAVIGAGITGITTAYLLAKEGIDVVLIDSGLILNGTTGHTTAKITAQHDLIYDELINHFGMEKAGLYYESNNHALQFINETVQTYKIDCNFSNEDSYLYTTTDKGLRNLSKEYEAYQKLNIPCDYVQSLSIPIPVQSALVMKNQAQFHPLLYLKTLLAKFVEMGGKVYEQTTAMDVEKGDSPQIITKEGHRITCEYVVSCSHFPLEHHHHHH | not soluble |
| MQFSTLIRVAVFAVLAIATLADYDDNSVGTIPVAVDLDYFSNYVKKGGPQGPLRFGKRRGPSGPLRFGKRSSFHVAPAAEDVASWYQ | not soluble |
| MQGKNTIVTTGDYSIGLLSQTSGNLNTDTIIRVNSDGSVTPSFSDGDDTFIVTAGNHAVGVLACASPGSACACVSSLDEESTADTGSNENNAIAKLDMAKGEITTHGTESYAAYANGTVVKAGDTLDYTNASVTLTDVDITTHGDNAHAIAARQGTVSFNQGEIYTTGPDAAIAKIYNGGTVTLKNTSAVAHQGSGIVLESSINGQEATVDILSGSSLRSANEILYHKDETSNVTITDSEVSSAADVFINNIKGHLTVDATNSKITGSANISTDDNTHTYLSLSDNSTWDIKADSTVSNLTVDNSTVYISRADGRDVEPTRLTITENYVGNNGVLHLRTELDDDNSATDKVVINGNTSGTTRVKVTNAGGSGAYTLNGIEIISVEGESNGEFIKDSRIFAGAYEYSLTRGNTEATNKNWYLTNFQATSGGETNSGGSSAPTVAPTPVLRPEAGSYVANLAAANTLFVMRLNDRAGETRYIDPVTEQERSSRLWLRQIGGHNAWRDSNGQLRTTSHRYVSQLGGDLLTGGFTDSDSWRLGVMAGYARDYNLTHSSVSDYRSKGSVRGYSAGLYATWFADDISKKGAYIDSWAQYSWFKNSVKGDELAYESYSAKGATVSLEAGYGFALNKSFGLEAAKYTWIFQPQAQAIWMGVDHNAHTEANGSRIENDANNNIQTRLGFRTFIRTQEKNSGPHGDDFEPFVEMNWIHNSKDFAVSMNGVKVEQDGVSNLGEIKLGVNGNLNPAASVWGNVGVQLGDNGYNDTAVMVGLKYKF | not soluble |
| MQGLYIYGEVGRGKTMLMDLFFSCLPQKRKKRAHFNDFMADVHERINIYRQASKDGKTGQKTPILAVVEDLAQEAQVLCFDEFSVTDIADAMVLGRLISALFDKGIFFVATSNVAPDNLYYNGLEHHHHHH | not soluble |
| MQHYLLDSNQRLNVSFSKDSVAAYYQCFNQPYRKEVPPLMCASLWPKFDLFKKYANSELILTKSAINQTQKIEVDTIYVGHLEDIECRQTRNITRYTMALTLTKNDQHVITVTQTFIKAMK | not soluble |
| MQICQNPSCSNPFNPDGNRFCMSCGQSNFGKLLRNRYRVLGLLGEGGFSKTYAAEDADRLDAPCVIKQFFPQIQGTGQRSKAAEFFKEEAFRLYELGENHTQIPRLLAYFEQGSSLYLVQEFIKGLTLLQEVQQEPFNEEKIRQLLIDLLPVLDFVHFHHVIHRDIKPENIIRRDGDGKLVLIDFGGAKQVTQTSIARQATAIYTLGYAPTEQMAGFACHASDLYALGVTCVRLLTQCLPQQNLYGHIDDGLYDPMNGKWLWQEYLQDRGITISENLSQILDKLLKHLPSERYQSAAEVLHDLQVFTAIVEETQILPNTQTTLVPLAPATQRTKRPLPPLQTFEYEVVTVDTAGRIVNRDRTNTQILVEQLNKDITLEMLSIPGGAYLMGSPNFEGDADERPQHQVAIAPFFMGKYPVTQAQWRAVAGLPKIKQALNPYPSKYKGQNRPVENVSWHEVLEFCARLSEKTGREYRLPSEAEWEYACRAGTTTSFHFGETITPDLANFSDSDIHNIEAKTRYRKETTDVGNFRVANAFGLYDMHGLVWEWCADPWHNNYNGAPTDGSVWEAGGDIYRRVLRGGSWNFGAELCRSASRSWNESDGGLRICGFRVVFSAGLEHHHHHH | soluble |
| MQILQVRLKNLNSLVGEWEIDFTDPAFVSDGIFSITGPTGAGKTTVLDAICLALYGRTPRLGKVSKSENEIMSRQTGECFAEVTFAAQSGCFRCHWSQHRAHKKPDGELQNPRHELAEADSGKILETRLTEVGRQIEKITGMDFARFTRSMLLAQGEFAAFLQAAPDERAPILEQITGTEIYSRISIRVHETRVSARRELDRLSAGLNGIQPLT | not soluble |
| MQITEALISEPGEIRRFVQQAVDHWPNLLAFHFTLYSAEGIYGQQIQTFCSSFHRRVHERITEHNHTVSPSAPVVLRWLREQHEGAQIRCLLLLSQTSICHPRVGVMADEECAQLVDLLQQTWSVISAGGQCRVERCFRVARPGSSGQYVALKTAVQSFMSQVIATIIR | not soluble |
| MQITTTFRHMEQSEALKSYAAEKLERVKKYIDEPITAQVFLTVEKIRHIAEVTLTAKGITIKAAEETNDMYAALDAVIDKIERQLRRYKERLKEHKPSADDRALEIQKSVVTAESIEQRTEPVVIRSKTISIKPMSVEEAVMQMDLLHKDFLVFTDASTEAINVVYRRKDGNYGLIEPQRKLEHHHHHH | soluble |
| MQKEMEQDVKRFGQAAWATAIPRLEKLKLMLAQETLQLMRAKELCLNHKRAEIQGKMEDLPEQEKNINVVDELAIQFYEIQLELYEVKFEILKNKEILLTTQLDSLERLIKDEI | soluble |
| MQKETWRFIDSGNASPAFNMALDEALLYWHSEKKIPPVIRFYGWNPATLSVGYFQNIKKEINFEAVHKYNLGFVRRPTGGRGVLHDQELTYSVIVSEEHPEMPATVTEAYRVISEGILQGFRNLGLDAYFAIPRTEKEKESLKNPRSSVCFDAPSWYELVVEGRKVAGSAQTRQKGVILQHGSILLDLDEDKLFDLFLYPSERVRERMQRNFKNKAVAINELIEKRVTMDEARKAFKEGFETGLNIHLEPYELSQEELDFVHHLAETKYASDEWNYKRMAGDPLEHHHHHH | not soluble |
| MQKQRMSGQNQKTDKRIAWPIIIMNFTGVYDYEAFARNNKFIWLDCRHLYGTDGYCDREGALALKGMIADYPAEGVHFIDSGNYHYLTKFWTDKLETPFSLIVFDHHPDMQPPLFDNILSCGSWVKDILDHNNNCKKVIIVGASDKLIQAVPKGYERQVRFYSETTLMHEEGWQNFSSGHINGPVYISIDKDVLKPASAATNWDQGSLSLWELEKLLAVILQKEQVVGIDICGECSTTLNLFEEKRETVMDSQANKELLRFIRSSSGLQ | not soluble |
| MQKRHTNRERYFEEQAQTTRNYYIPYIKEYTGNLPNKVLEVGCGEGGNLLPFAELGCDVIGIDIAASRIEQAQNFFITKRQKGTFIASDIFLLKDLQKHFPLILIHDVIEHIDNKEQFLRNLKKYLSPNGMIFIAFPAWQMPFGGHQQIARSKIISHMPFIHLLPRMLYKRILELFSEQESTVKELLTIKYTRCTIEMFRRVVKQTDYQIVNEQLYFINPHYKIKFGLTPHKLNKTIACIPFIRNVFSTSCFYLIRPT | not soluble |
| MQLSPKEFEYQFRCLYRPLNMYALRYTENLDDAEDIVQQAFSDVWEKLVGGTSIQNLKAYMYQTVRNRSLTLITNRQTHCETTELTDLEDLTEEERIIRSERDARLWTAIDHLPTERKKIFLLSKRDGLTYQEIATELGISIKTVEHQISKALKTLRETAIKIYTFFFG | not soluble |
